# Values quoted from earlier work, collected in article PMC12525431, “Hsp70 Peptides Induce TREM-1-Dependent and TREM-1-Independent Activation of Cytotoxic Lymphocytes” (International Journal of Molecular Sciences, 2025).
# Biological target: T1, TREM-1 (Homo sapiens, UniProt Q9NP99)
# T1 construct: causes dissociation of the TREM-1 exocellular domain; made in house
# Conditions: ref [30],[31],[32],[33]
# T1 sequence (Q9NP99 21-205 limits assumed): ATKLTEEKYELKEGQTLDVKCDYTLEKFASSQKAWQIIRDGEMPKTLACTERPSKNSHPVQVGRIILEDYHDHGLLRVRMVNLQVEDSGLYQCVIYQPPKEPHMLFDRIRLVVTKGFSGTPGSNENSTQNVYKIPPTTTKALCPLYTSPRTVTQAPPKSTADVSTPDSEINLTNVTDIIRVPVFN
molecule,measurement,value
"eCIRP: RNA-binding protein (eCIRP), TREM-1 ligand (protein, UniProt Q14011 1-172, looked up) Cold-inducible RNA-binding …: MASDEGKLFVGGLSFDTNEQSLEQVFSKYGQISEVVVVKDRETQRSRGFGFVTFENIDDAKDAMMAMNGKSVDGRQIRVDQAGKSSDNRSRGYRGGSAGGRGFFRGGRGRGRGFSRGGGDRGYGGNRFESRSGGYGGSRDYYSSRSQSGGYSDRSSGGSYRDSYDSYATHNE",TREM-1 ligand,TREM-1 ligands
